Legend:
Details in all cases: tags: His-tag; biotinylated in the SELEX runs
[1] = biological target: T1, p-hydroxyphenylpyruvate dioxygenase (HPPD) (Arabidopsis thaliana, UniProt P93836 P93836:1-445); assay: FP; nitrocellulose filter retention (method is filter binding)
T1 sequence: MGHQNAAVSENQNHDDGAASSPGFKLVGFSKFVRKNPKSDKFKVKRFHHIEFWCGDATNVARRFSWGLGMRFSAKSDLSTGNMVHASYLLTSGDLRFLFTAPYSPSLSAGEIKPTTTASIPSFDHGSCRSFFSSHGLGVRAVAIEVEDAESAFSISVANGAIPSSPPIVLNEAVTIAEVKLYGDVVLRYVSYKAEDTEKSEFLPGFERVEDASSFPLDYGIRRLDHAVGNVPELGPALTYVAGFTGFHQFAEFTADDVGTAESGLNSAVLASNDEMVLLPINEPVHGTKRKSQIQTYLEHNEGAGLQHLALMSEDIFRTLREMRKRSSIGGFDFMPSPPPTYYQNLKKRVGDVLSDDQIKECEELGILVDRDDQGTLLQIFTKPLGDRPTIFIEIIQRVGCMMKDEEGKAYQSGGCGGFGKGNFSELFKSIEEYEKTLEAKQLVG
Experimental: (§1) The bound RNA molecules were eluted by heating to 95° C. and amplified by RT-PCR and in vitro transcription before starting the next selection cycle. A nitrocellulose filter retention assay was used to determine binding of selected, radioactively labelled RNA libraries to recombinant protein (Methods in Enzymology, Vol 267, Combinatorial Chemistry, (1996), Abelson J. N. and Simon M. I., eds. Academic Press, San Diego). RNA library (−80 nM) was incubated with increasing concentrations of target protein in binding buffer and subsequently filtered through nitrocellulose filters which bind to proteins but not to RNA molecules. RNA bound to the target protein is retained within the complex on the filter and was quantified by a phosphoimager. Values were calculated as the percentage of total radiolabeled RNA in the reaction.
(§2) To determine the binding properties of individual aptamers isolated as part of the mixture of aptamers binding to HPPD in the previous example, aptamers were cloned into a vector, and 24 clones were sequenced. […]

[2] = biological target: T1, p-hydroxyphenylpyruvate dioxygenase …; assay: filter; 20 mM Hepes pH 7.4, 150 mM NaCl, 3 mM MgCl2
Description: as §1, with “The T7-RNA polymerase promoter is underlined. The double stranded DNA template was used to transcribe the initial RNA library. The procedures to produce an RNA library and to perform a SELEX experiment are well known to a person skilled in the art and described in, e.g., Methods in Enzymology, Vol 267, Combinatorial Chemistry (1996), Abelson J. N. and Simon M. I., eds. Academic Press, San Diego. Subsequently, the complexes between target and RNA were captured on streptavidin-coated beads and unbound RNA was removed by washing with binding buffer. The” for “The”, “reaction. […]” for “reaction.”

[3] = biological target: T1, p-hydroxyphenylpyruvate dioxygenase …; assay: filter; nitrocellulose filter retention
Experimental: as §1, §2

B1: S116D-C8 (ssRNA)
RNA: GGGAGAGGAGGGAGAUAGAUAUCAAUAAAGUCGGUGACACCACGCAUCCAAAUACCGGUACGCGGAACUAAUAGUUUGUCCUCACGGUGGAUGG
[1]
  Kd: 120 nM

B2: S115A-C1 (ssRNA)
RNA: GGGAGAGGAGGGAGAUAGAUAUCAACAAUGACUAGCCGUGUAAGUGGUCUCGUACAUCCGAAAAAGACGACCCAGUUUGUCCUCACGGUGGAUGG
[2]
  Kd: 128 nM

B3: S116C-C18 (ssRNA)
RNA: GGGAGAGGAGGGAGAUAGAUAUCAAUAUCGCCACGUUACGAGUACCAAGCUUUAUUUCCGCAGCCCGAUAGAGUUUGUCCUCACGGUGGAUGG
[3]
  Kd: 832 nM

B4: S116B-C4 (ssRNA)
RNA: GGGAGAGGAGGGAGAUAGAUAUCAAGUAACAAAUGAUACUUUCCAAGCAUAAUUCAUUCGCAGCCCGAAUUAAGUUUGUCCUCACGGUGGAUGG
[3]
  Kd: 740 nM

From patent US20100248978, “METHOD FOR IDENTIFYING THE INTERACTION PARTNER OF AN ACTIVE AGENT” (Bayer Cropscience AG, published 2010)
